From a protein production outcome set (Wang et al. 2014)

Assay: label from the status in PepcDB records

Row | Sequence | protein production
1 | MGATVPQRKALVLKASRILLSEKPLPERLQAFLEALLEGPFPIRSGKLYLRKGEGLRLVAQLGGEAGGEEVALSLEGGGRALGRLSLRLAPAASLAPEDRLALEEAAGILALALLRERAERAERVLRRAGECATQAAGEGDLLHKVCALLVEEGYALAWVGEARPTGEVVPREAAGAVGYLEGIRVRWDEAPEGQGPTGRALRSGRPQVLRSVEEDPRYAPWRERAQVFGFASSAAFPLRVEGRVWGSLNVYAPEEDAFDEEEVRLLEDLARLIGHALDRLRALERLRFLAYHDPLTGLPNRRRLEEDFRLLRGRWALCRLDLVDLYEVNEAYGREAGDALLARTSRRLQALLPREGRLYRLEGGEFLALLPGGAKEAEAFGQALGEALEAPLDLGEGRAFRVRVRAGVALFPDDANTLSELLRRADQALREAKKAGKRWTFYSLGLGEAVRERREVLAGLEKALAEGELRLYGQPIVDLATGRPAGVEVLLRWARGEEVVPASRFIPVAEEAGLIPELDLYVLRALAQMTTALPLHVNLSPQTLLDERLLLGLAPLKGRNLRLELTEHALASPGAEARLKELSCMGFPVVLDDFGQGYASLRLLVGLPFSMAKVDRGFVGGIGLDPKAEAALKAVLALSRELEIALVAEGVEREDQWAWLRSVGYSLGQGYLWGRPAPLEEVLYP | failed
2 | MLSELAKQFSTQIQTFFYLIMLINGLLHFIFAGAVARDAGNLYRLGQKPVLVSAPTWAFATLIGGVITATIYWLLHHSTLTRPTMREIRYDKA | failed
3 | MSLSWEIEELDREIGKIKKHSLILIHEEDASSRGKDILFYILSRKLKSDNLVGMFSISYPLQLIIRILSRFGVDVIKYLENHRLAIVDTFGSFHGIKATMPGVWYLEGMLSSETLPIKYAKAVEDHKKVWMDLNLFEGRELYGFAISMSGYLEVFTPEETLRYLETSAEVRYGHPAYKKYPRGTNFWLWEGVKDKRVLLSVYRRADYVLKTRSSLGENGIKRELLVIKTPKPIEELVRFEYEFKGNEPKLRREGHHHHHH | not failed
4 | MKGRLLQRLRQLSISNSLRGAFLTGALLTLIVSMVSLYSWHEQSSQVRYSLDEYFPRIHSAFLIEGNLNLAVDQLNEFLLAPNTTVRLQLRTQIIQHLDKIERLSQGLQLAERRQLAVILQDSRTLLAELDNALYNMFLVREKVSELSARLTGSSDDFTTELNSLVQDFTWQQGTLLDQIEANQGDAAQYLQRSREVQNEQQQVYTLAEIENQIVDDLRDRLNELKSGNNDGMLVETHIRYLENLKKTADENIRALDDWPSTITLRQTIDELLEIGMVKNKMPDTMRDYVAAQKALLDASRAREATLGRFRTLLEAQLGSSHQQMQTFNQRLEQIVRVSGGLILVATLLALLLAWGLNHYFIRSRLVKRFTALNQAVVQIGLGRTDSTIPVYGRDELGRIARLLRHTLGQLNMQRRQLEQEVAERKEIEADLRAMQDELIQTAKLAVVGQTMTTLAHEINQPLNALSMYLFTAGRAIEQGQSGQARNTLRKAEGLINRIDAIIRSLRQFYRRAELETPLYPVDARQTFVAAWELLAMRHQSRQGALSLPTDTVWVSGDEVRIQQVLVNVLANALDACSHDAVIAVTWQTQGEALEVYIADNGPGWPVALLPSLLKPFTTSKAVGLGIGLSISVSLMAQMKGDLRLASTLTRNACVVLQFSVTDVDDVE | failed
5 | MLDLAAPFFLLLLPLPFLVRRFLPPHAAQEGALYLPEAFAAAARPTSAFARSERWEGALRAILWLALVLALAGPERLKAVPDLSASGREIVLTLDMSGSMLIEDFDIDGVQSTRLEAVKRVARSFVEERQGDRIGLVLFANRAYVAAPLTFDLAAVGRAIEEASIGITGRSTAIADGLGLALKSVTESSAASRVIVLLSDGQDNAHQIDARQVAGLAARHGVRIHTIALGPDDLETRPAARDAVDTATLRAIAEASGGRSYRVRGMEDLRAMAADLDRLEPNPAERPPVLVPEPLWPWPALLALGAALVLGLRRAGLAPWPRRAGRAA | failed
6 | MTVSDPAGPRCFCRDCLVDLDMGVRRCSACGSPRLVRHRALSSLTIAHIDCDAFYATVEKRDNPDIADKPVIIGGGKRGVVSAACYIARTYGVRSAMPMFKALDACPHAIVIRPDMAKYVRVGREVRQAMQALTPLVEPLSIDEAFLDLSGTERVHGMIPAKVLARFARNIERDIGISVSVGLSCNKFLAKIASDLDKPRGFAALDQEEARLMLASRPVGFIFGVGPATQERLVQRGFRIIADLQKADEIEMMRQFPSDGRRLWRLARGIDDRRVEPDRGAKTISSETTFETDIRDFATLEKILWRLCEKTSSRLKSSELAGSTVTLKLKTADFRQRTRSQSIAAPTQLAAKIFSICREMLAKEIDGTAFRLMGAGVSALREGSPADDTDMLDRRAAHAERAVDSLRKKFGNSAVIRGIAYDGPETGQQE | failed
7 | MFSSSYSNLPPLPHRLFLLLTVIWAGSLWTIGYLVAPTLFSVLPSRETAGMIAGHLFRYEAILGMTVGVLQLVLCNVLIRRGAERYRSLRWIVLTMLVCVLAGYFGVQPFMEGLKVKAQALNLGVSESPYKAEFGMLHGVSSVIYLVQSVLALVLVWRASAPR | failed
8 | MRWKLRTAGGLTALALLGGALAGPAARAAEQGSDRLGDLVNPFIGTQNEGNTYPGAAVPFGMVQLSPDTGHNTGYDYTQNHIRGFSLVHLSGVGCRIGGDLPVLPTTGDVTETDYAKYAAGFSHDSERASPGYYRVGLDSGIVAELTATGRTGVQRYTFPATDKANVLLNAGQALHKTVSTDVEVLDDRTVRTRISGSGFCRDTGPYTVYTITRFDRPFTAYGTWHGGTVTEGSAESAAGTGRNGAYARFDATEDRTVEATTALSYVDARGAEVNLRSAEGRSFADVREAARRSWEDRLDDVRVRGGSDTLRRTFYSSLYRSFLAPNIGSDADGRYTGWDHRIHRARGFTYYQNWSLWDTYRTQCQLLALLAPRESRDMAISVLKIDEDGGWLPKWGYGTVETNIMSGDPVTPFLTNAYQQGLLKGYEEQAYRALAKNADGLPPAAYPGVGRDGNREYIADGFVPYIKGGPHAKPGDSDYAHGASATMEYALSDAMLSRMARDLGHDADAERYTARSRNYRTLFDASTGFFRARDTSGAFAGPADPADSEGFHEGTAWQYQWLVPQDLPGLVDLIGGKQAANDRLDAFFAYEQLLQDPARTAREVWVDGPYEYYNSDKYNPQNEPDLIAPYTYLSTGQPWKTTDVVHAALTLFTDTPTGMTGNDDLGTMSAWHVLSSIGLFPVQPGYDTWGLSTPVFERVDLRLDRGYYPRGTLTVTAPGTSDRDRYIQSVRVDGASHDRTYLTTRVLRGLEALHFAVGARPSAWGTAPHAAPPALK | failed
9 | VRISRPDVLLNIHIAQTTCTLSLDSSGESLHRRGYRQEAVEAPLNEVLAAGMILMTGWKGECDLIDPMCGSGTIPIEAALIARNIAPGVFRKEFAFEKWGDFDQNLFDRIYNDDSQEREFTHKIYGYDNNPKANEIATHNVKAAGVSKDIILKLQPFQQFEQPAEKSIIITNPPYGERISTNDLLGLYNMIGERLKHAFVGNDAWILSYREECFDQIGLKPSVKTPLFNGPLECEFRKYQIFDGKY | failed
10 | MTTAYNHLCTAFTRLSRFEHLSAIAGWDMQTMMPAKGNLARSEAMAELNVLQHQILTAPQIGEWLKQAEQELLDEQSIDELKLANLREMHRHYHNAVLLPESLVEAKSLAGARCEHAWRQQRIANDWAGFAENLREVVKLSREEAKIRAEAAGTSGYDALLNLYEPGTNSADIDRIFGDLKQWLPALLQKVTTKQQSSEPCLIPQGPFDLEKQRQLGLSVMKVLGFDFNGGRVDVSVHPFCGGVPQDVRITTRYNNQEFLSALMGIVHETGHARYEQNLPREWLGQPIAHARSTAIHESQSLLFEMQLARSNEFLQVIHPLVIQQFGEQPAFAEHNFIALNQRVKTGLIRVDADEVSYPAHVILRYEIEKALIGGEIDVEDIPALWNEKMQQYLGINTEGDYRNGCMQDIHWTDGAFGYFPTYTLGAMYAAQLFHAARSAIPALDSHIANGNLAPLLNWLQQNIWQHGSRYPTAELITKATGEPLNPRYFRQHLERRYL | failed
11 | MIVIPMAGMSSRFFKAGYTQPKYMLEAHGQTLFEHSVNSFAAYFASTPFLFIVRNVYDTAVFVREKATQLGIKQFYIAELHTETRGQAETVTLGLEELAKQGVDYQGSITVFNIDTFRPNFVFPDISQHSDGYLEVFQGGGDNWSFAKPEHAGSTKVIQTAEKNPISDLCSTGLYHFNRKEDYLEAYREYVARPSQEWERGELYIAPLYNLLIQKGLNIHYHLIARHEVIFCGVPDEYTDFLRQPQPLEHHHHHH | not failed
12 | YDLLCRERDNFRILVAITNAVLSRLDIDELVSEVAKEIHHYFNIDAISIVLRSHRKNKLNIYSTHYLDEHHPAHEQSEVDEAGTLTERVFKSKEMLLINLNERDPLAPYERMLFDTWGNQIQTLCLLPLMSGKTMLGVLKLAQCEEKVFTTANLKLLRQIAERVAIAVDNALAYQEIHRLKER | failed
13 | MTVGTYAELASVFAALSDETRWEILTELGRADQSASSLATRLPVSRQAIAKHLNALQACGLVESVKVGREIRYRALGAELNKTARTLERIGAEWDRRLAAIKQIAESMEE | not failed
14 | MEFILEPWHWFVLGILLMLSELVITAFAALWFGIAAIMVSVLLWLFPMMGITTQVIMWIILSVLCTLLWFKFIKPLSIDKTKAGLSREATIGQIGMVIRVGLSHEQIVVRFALPVLGADEWNCRSLAPVEVGDRVCVVDIMGNDLVVQPHIPINNK | failed
15 | MPQIYFSAAERRPKFVMKTGLSATEKNEVIKAAYRQIFERDITRAYSLSISDLESKVKNGDISMKEFVRRLAKSPLYQKQFYQPFINSRVIELAFRHILGRGPSSREEVQKYFSIISNGGLPALVDALVDSAEYSDYFGEETVPYLRGLEHHHHHH | failed
16 | MKISFSESQKLFAYFSGLIAALSLFIYYVSAQQSEGALILCITFGVIAAGIWFGPIYALAVTLIVLFVLGTLMMFFQTGQTSLFPAEEGLRMLVVWGIALLLFSFISGRIHDITAELRRSMTRLQSEIKSYVAVDRVTGFDNKQRMKLELSEEIKRAERYGNSFVFLLLHMHYFKEFKSLYGEKETDRLFQYVGQQIRTSVRETDKKFRPSDERIGIVLTHTPAEHMPAVLTKLKKQLDTYQLENGKYVSLTFHVCYLPYRNDIQTADQFLEELENEMMMNEL | failed
17 | MPSIVKGIIPPVLTPMKSDRSIDFEALERLVEHLIAGGVDGLFALGSSGEVAFLSDEDRATVIREIVRIAAGRVPVYAGVIDMQVNRMLGHIKAAEEAGVD | not failed
18 | MTTCGEFLVKQLEAWGVETVFGIPGVHTVELYRGLPGSRIRHVTPRHEQGAGFMADGYARVTGKPGVCFIITGPGMTNILTAMAQAYADSIPMLVISSVNERARLAHGNGYLHELPNQRNLVGNVCAFSHTLMSAEELPAVLARAFAVFDSERPRPVHIELPLDVITAPAEHLALRPRTVTSRPAPALAPLREAAARLRNAKKPLLLLGGGCVEAAAEARALAAALDAPTALTINAKGLLPADHPLLLGSNQSCVPVRELATEADVVLAIGTELGETDYDVVFDGGFALDGELIRIDIDPQQLMRNYTPSLAIHSDARLAMRVLLAELPGGEASPDSPGARRAAAVRQRLAEDFAGWSHYRQLFAAILAEWPDARFVGDSTQTVYSGNHLVDLDEPRRWFNASTGYGTLGYGLPAAIGAKLGEPGRPVVSLMGDGGLQFTLPELASAVEAKVGIVVLLWNNHGYGEIKRYMERREITPLGVDIYTPDFLAIARGFGCAAERARDLEHLRELLRGAPADRPLIVEVLQAAPFHP | failed
19 | MSLTNSSKSFTKFMAASAVFTMGFLSVPTAGAEQTNQIANKPQAIQWHTNLTNERFTTIAHRGASGYAPEHTFQAYDKSHNELKASYIEIDLQRTKDGHLVAMHDETVNRTTNGHGKVEDYTLDELKQLDAGSWFNKKYPKYARASYKNAKVPTLDEILERYGPNANYYIETKSPDVYPGMEEQLLASLKKHHLLNNNKLKNGHVMIQSFSDESLKKIHRQNKHVPLVKLVDKGELQQFNDQRLKEIRSYAIGLGPDYTDLTEQNTHHLKDLGFIVHPYTVNEKADMLRLNKYGVDGVFTNFADKYKEVIKEGHHHHHH | not failed
20 | MKIAVVDGQGGGIGKAVVEKLRKELPEDTQIIALGTNALATTLMLKAGANEGASGENAIVFNAPKVDIIVGPIGIISANSMMGELTPLMAAAIAESPARKILIPLNRCNIEIAGVKNEPLPYYIEHAVEMVKKYVEGHIALEHHHHHH | not failed
